Values of other authors, collected in PMC7687380.

Biological target: LRP1 (Homo sapiens) (UniProt Q07954)
Chain of UniProt Q07954 (Q07954 20-4544): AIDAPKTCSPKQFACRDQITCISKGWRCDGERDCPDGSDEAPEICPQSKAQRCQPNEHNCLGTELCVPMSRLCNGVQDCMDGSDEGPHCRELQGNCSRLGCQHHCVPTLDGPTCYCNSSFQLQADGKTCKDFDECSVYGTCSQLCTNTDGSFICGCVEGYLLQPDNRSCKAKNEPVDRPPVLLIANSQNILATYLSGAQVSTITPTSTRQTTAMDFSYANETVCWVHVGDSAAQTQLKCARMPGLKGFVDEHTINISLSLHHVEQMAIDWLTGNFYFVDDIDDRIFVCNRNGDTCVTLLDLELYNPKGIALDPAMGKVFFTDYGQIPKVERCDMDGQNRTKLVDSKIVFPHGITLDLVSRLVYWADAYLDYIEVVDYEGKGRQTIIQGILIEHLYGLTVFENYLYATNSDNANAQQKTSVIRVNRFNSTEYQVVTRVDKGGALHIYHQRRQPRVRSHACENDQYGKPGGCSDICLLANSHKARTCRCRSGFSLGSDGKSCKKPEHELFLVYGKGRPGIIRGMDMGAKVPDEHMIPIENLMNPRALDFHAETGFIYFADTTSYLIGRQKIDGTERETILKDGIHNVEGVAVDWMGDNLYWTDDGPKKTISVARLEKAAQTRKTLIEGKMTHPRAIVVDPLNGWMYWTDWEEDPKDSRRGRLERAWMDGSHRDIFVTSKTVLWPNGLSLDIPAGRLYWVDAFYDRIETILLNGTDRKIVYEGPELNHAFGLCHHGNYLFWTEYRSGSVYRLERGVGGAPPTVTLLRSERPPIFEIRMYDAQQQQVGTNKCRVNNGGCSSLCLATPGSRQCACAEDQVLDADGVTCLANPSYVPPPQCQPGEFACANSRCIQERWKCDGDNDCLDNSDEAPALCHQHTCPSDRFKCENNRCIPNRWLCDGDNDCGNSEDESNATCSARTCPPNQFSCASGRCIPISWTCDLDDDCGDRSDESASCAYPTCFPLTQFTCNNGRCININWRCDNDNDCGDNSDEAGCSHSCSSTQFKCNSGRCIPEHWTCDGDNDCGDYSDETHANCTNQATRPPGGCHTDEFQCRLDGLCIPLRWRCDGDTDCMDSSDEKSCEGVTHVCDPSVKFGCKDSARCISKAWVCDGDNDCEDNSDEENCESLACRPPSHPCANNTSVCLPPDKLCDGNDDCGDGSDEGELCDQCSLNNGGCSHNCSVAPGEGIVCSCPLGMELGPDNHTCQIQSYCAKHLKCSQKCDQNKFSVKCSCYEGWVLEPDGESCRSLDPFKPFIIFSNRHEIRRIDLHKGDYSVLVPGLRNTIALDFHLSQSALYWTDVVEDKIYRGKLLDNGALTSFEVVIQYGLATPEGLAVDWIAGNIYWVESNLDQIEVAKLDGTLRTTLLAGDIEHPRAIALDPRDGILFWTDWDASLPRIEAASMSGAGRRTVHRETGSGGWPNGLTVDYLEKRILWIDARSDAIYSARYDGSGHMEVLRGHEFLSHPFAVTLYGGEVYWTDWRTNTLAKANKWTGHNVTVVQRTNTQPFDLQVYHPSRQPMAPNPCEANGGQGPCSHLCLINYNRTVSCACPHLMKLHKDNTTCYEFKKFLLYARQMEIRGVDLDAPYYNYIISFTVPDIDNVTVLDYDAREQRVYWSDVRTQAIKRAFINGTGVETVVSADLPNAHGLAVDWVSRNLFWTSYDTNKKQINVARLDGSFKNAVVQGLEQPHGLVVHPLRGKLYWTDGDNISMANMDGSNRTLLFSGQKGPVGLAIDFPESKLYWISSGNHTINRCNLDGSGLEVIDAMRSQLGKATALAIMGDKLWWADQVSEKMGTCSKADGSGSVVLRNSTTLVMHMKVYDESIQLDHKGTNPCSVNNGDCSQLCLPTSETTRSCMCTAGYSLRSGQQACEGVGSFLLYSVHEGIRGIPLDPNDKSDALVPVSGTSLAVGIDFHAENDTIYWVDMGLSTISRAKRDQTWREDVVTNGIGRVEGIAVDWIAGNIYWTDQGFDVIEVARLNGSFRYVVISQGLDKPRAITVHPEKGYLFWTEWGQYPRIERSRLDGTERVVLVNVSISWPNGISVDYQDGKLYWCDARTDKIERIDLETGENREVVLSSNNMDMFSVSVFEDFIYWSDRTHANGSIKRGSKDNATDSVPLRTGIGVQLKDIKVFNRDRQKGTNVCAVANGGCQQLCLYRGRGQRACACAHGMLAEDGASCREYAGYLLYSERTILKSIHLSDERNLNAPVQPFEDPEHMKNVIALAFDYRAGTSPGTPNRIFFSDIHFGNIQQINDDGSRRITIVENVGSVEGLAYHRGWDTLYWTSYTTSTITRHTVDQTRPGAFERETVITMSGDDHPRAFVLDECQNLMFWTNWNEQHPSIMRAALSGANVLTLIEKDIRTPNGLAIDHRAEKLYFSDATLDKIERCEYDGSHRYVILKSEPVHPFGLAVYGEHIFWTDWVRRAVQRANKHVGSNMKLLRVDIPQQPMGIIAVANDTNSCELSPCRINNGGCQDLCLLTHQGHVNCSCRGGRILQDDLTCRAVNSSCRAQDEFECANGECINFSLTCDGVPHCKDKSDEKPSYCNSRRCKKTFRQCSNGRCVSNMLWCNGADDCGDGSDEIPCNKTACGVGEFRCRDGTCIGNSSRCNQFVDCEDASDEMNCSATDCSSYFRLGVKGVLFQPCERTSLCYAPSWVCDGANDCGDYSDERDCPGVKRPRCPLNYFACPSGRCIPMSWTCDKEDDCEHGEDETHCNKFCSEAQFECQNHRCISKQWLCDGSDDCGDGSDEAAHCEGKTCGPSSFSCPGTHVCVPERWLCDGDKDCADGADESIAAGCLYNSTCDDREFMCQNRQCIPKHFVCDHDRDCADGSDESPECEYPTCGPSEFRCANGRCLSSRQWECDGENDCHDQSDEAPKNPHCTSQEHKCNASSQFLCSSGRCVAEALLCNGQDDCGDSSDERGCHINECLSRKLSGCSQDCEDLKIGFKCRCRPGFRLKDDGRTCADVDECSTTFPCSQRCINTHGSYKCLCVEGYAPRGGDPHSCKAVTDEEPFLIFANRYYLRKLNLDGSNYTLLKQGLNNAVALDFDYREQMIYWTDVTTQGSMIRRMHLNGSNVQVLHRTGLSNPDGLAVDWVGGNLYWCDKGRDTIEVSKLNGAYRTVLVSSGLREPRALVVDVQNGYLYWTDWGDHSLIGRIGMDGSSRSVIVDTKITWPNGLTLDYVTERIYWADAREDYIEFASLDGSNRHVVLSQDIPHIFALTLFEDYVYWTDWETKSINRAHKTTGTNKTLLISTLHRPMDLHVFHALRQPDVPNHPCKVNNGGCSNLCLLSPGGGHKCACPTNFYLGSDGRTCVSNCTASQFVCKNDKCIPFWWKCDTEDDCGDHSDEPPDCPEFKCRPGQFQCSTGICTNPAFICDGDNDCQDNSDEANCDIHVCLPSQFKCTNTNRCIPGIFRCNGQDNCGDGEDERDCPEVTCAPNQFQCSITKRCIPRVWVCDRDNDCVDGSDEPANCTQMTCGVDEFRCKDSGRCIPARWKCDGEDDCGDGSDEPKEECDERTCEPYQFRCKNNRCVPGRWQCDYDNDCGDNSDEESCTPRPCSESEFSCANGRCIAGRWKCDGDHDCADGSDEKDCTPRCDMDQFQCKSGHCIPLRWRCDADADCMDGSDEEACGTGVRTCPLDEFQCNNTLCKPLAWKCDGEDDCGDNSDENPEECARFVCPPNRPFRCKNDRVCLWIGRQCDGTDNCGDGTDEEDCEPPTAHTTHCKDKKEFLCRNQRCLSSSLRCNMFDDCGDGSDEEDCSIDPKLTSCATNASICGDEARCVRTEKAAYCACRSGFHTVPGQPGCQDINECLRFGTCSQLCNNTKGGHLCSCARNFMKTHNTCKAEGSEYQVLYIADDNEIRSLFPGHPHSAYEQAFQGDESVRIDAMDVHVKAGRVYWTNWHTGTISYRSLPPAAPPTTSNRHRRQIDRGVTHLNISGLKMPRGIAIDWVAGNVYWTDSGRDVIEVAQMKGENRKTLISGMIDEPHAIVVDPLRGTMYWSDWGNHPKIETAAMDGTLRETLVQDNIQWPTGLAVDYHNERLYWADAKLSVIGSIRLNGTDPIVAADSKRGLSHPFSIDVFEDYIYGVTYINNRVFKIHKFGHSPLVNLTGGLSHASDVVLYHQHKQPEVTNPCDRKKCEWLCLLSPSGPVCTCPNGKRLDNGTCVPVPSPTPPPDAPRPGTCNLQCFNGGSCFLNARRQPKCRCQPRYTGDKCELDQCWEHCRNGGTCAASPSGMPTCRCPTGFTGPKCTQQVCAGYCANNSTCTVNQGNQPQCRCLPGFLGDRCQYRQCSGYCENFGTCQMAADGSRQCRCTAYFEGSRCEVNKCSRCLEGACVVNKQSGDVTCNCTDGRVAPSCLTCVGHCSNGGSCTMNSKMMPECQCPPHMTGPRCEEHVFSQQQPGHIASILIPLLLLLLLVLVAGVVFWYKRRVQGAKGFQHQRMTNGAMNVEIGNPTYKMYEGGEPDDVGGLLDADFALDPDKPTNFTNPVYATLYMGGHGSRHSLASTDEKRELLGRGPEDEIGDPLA

- Kd: 9 nM
Substance: RAP (from UniProt P30533)
